Assay results from patent US20210347913A1 (CRISPR THERAPEUTICS, published 2021).
Residue numbers refer to the chain shown, from its start. Names and notes keep the numbering of the source.

T1: recombinant human PTK7.Fc (R and D Systems, catalog #9799-TK) (human, UniProt Q13308 31-704, limits assumed)
T1 construct: Bought reagent; also called soluble recombinant human PTK7.Fc; soluble antigen PTK7; not shown: Fc part of the bought fusion (detected with anti-human Fc)
T1 sequence (looked up): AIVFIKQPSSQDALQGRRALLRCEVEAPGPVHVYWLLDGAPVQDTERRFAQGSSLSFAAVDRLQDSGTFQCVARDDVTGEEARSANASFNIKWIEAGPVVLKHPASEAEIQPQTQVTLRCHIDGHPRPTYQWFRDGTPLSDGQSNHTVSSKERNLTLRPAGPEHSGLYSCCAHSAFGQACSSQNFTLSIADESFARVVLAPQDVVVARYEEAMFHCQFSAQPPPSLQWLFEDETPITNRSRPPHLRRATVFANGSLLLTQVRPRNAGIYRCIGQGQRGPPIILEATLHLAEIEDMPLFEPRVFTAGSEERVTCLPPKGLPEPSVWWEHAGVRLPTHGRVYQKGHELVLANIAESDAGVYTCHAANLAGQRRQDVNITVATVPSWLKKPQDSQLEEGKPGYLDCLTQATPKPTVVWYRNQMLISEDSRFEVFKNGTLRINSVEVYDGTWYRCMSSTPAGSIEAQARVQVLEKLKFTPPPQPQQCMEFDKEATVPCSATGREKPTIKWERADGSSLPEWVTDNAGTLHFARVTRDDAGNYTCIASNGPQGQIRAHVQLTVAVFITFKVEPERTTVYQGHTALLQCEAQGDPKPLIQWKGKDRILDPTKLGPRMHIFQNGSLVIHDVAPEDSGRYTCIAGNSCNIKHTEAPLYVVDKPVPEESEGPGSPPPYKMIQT

T2: PTK7 on PTK7 positive cell line SaOS-2 (osteosarcoma) (UniProt Q13308 31-1070, limits assumed)
T2 sequence (looked up): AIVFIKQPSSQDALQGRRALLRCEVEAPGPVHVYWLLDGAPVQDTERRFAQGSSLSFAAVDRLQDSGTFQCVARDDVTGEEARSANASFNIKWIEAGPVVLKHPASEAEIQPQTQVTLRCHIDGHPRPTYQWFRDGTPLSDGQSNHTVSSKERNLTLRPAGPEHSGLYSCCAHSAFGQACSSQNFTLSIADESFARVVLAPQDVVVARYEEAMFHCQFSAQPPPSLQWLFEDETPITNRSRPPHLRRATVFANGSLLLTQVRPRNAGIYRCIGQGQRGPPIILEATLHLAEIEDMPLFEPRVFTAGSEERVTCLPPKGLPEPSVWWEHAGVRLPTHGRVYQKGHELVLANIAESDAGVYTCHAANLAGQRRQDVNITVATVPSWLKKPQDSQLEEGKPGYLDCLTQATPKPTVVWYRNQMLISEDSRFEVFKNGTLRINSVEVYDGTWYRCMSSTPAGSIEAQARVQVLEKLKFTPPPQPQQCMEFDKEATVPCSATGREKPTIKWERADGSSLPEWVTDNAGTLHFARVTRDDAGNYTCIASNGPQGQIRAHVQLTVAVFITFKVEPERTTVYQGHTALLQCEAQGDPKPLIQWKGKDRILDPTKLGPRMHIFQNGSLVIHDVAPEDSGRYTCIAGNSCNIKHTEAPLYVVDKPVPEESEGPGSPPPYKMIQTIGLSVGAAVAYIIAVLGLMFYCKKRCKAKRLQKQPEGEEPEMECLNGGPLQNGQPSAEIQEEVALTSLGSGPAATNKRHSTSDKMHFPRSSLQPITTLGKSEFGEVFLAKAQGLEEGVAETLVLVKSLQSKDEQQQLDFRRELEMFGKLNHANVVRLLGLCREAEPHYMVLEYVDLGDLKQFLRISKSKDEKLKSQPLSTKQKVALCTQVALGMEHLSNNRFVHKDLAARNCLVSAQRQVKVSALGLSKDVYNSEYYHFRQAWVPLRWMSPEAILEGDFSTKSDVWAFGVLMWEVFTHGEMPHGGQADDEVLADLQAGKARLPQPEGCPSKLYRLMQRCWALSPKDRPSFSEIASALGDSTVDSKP

B1: CTX181.M4 (other)
chain: QGCTFPNTTMQRTFCGSSGGSGGSGGSGGGPLGLAGGSSGQVQLVESGGGVVQPGRSLRLSCAASGFTFSSYGMHWVRQAPGKGLEWVAVIWDDGSNKYYVDSVKGRFTISRDNSKNTLYLQMNSLRAEDTAVYYCARDDYYGSGSFNSYYGTDVWGQGTTVTVSSGGGGSGGGGSGGGGSEIVLTQSPATLSLSPGERATLSCRASQSVSIYLAWYQQKPGQAPRLLIYDASNRATGIPARFSGSGSGTDFTLTISSLEPEDFAVYYCQQRSNWPPFTFGPGTKVDIKSAAAFVPVFLPAKPTTTPAPRPPTPAPTIASQPLSLRPEACRPAAGGAVHTRGLDFACDIYIWAPLAGTCGVLLLSLVITLYCNHRNRSKRSRLLHSDYMNMTPRRPGPTRKHYQPYAPPRDFAAYRSRVKFSRSADAPAYQQGQNQLYNELNLGRREEYDVLDKRRGRDPEMGGKPRRKNPQEGLYNELQKDKMAEAYSEIGMKGERRRGKGHDGLYQGLSTATKDTYDALHMQALPPR
notes: Masked chimeric antigen receptor on the surface of TRAC-/B2M- human T cells; entry without signal peptide
B2: CTX181.M6 (other)
chain: QGVCTYPPAHRTRFCGSSGGSGGSGGSGGGPLGLAGGSSGQVQLVESGGGVVQPGRSLRLSCAASGFTFSSYGMHWVRQAPGKGLEWVAVIWDDGSNKYYVDSVKGRFTISRDNSKNTLYLQMNSLRAEDTAVYYCARDDYYGSGSFNSYYGTDVWGQGTTVTVSSGGGGSGGGGSGGGGSEIVLTQSPATLSLSPGERATLSCRASQSVSIYLAWYQQKPGQAPRLLIYDASNRATGIPARFSGSGSGTDFTLTISSLEPEDFAVYYCQQRSNWPPFTFGPGTKVDIKSAAAFVPVFLPAKPTTTPAPRPPTPAPTIASQPLSLRPEACRPAAGGAVHTRGLDFACDIYIWAPLAGTCGVLLLSLVITLYCNHRNRSKRSRLLHSDYMNMTPRRPGPTRKHYQPYAPPRDFAAYRSRVKFSRSADAPAYQQGQNQLYNELNLGRREEYDVLDKRRGRDPEMGGKPRRKNPQEGLYNELQKDKMAEAYSEIGMKGERRRGKGHDGLYQGLSTATKDTYDALHMQALPPR
notes: as for B1
B3: CTX181.M7 (other)
chain: B1 chain with F5M, N7Y, T8H, T9I, M10H, Q11S, R12I, T13G, F14L
notes: as for B1
B4: CTX181.M8 (other)
chain: B2 chain with V3W, Y6I, P8S, A9S, H10M, R11S, T12I, F14L
notes: as for B1

molecular target: T1, recombinant human PTK7.Fc (R and D …); test: flow cytometry, percent of CAR T cells positive for 10 ug/mL PTK7.Fc
Protocol: In addition to detecting surface CAR expression, the ability of the CAR T cells and masked CAR T cells to detect target antigen was also determined. Live CAR T cells were gated by their forward scatter (FSC) and side scatter (SSC) profiles, and with DAPI dye (Invitrogen, catalog #: D3571). The cells were then stained with 10 μg/mL recombinant human PTK7.Fc (R and D Systems, catalog #9799-TK Lot DHMCO219041) as described above in Example 3, and with mouse anti-human.Fc conjugated to APC (Biolegend cat #409305) as secondary antibody for detection (FIG. 3).

In order of falling “% Antigen detection” value:
1. B1  32.6%
2. B3  28%
3. B4  20.2%
4. B2  14.7%

molecular target: T2, PTK7 on PTK7 positive cell line SaOS-2 …; test: cell-based or functional assay

In order of falling “IFNγ (pg/mL) at E:T = 1:0.5” value:
1. B1  9550 pg/mL
2. B3  885 pg/mL
3. B2  735 pg/mL
4. B4  400 pg/mL

In order of rising “IFNγ (pg/mL) at E:T = 1:1” value:
1. B4  443 pg/mL
2. B2  715 pg/mL
3. B3  830 pg/mL
4. B1  13200 pg/mL

molecular target: T2, PTK7 on PTK7 positive cell line SaOS-2 …; test: cell-based or functional assay; remark: another data set of the same source

In order of rising “% Cell killing at E:T = 1:0.5” value:
1. B4  15.4%
2. B3  37.5%
3. B2  42.4%
4. B1  78.4%

In order of falling “% Cell killing at E:T = 1:1” value:
1. B1  54.6%
2. B2  13.9%
3. B3  10.2%
4. B4  3.9%
